According to patent publication US20140087995A1 (published 2014):
Numbered stars: 1 amine (or outer) side, 2 acyl side, 3 side chain; on linkers, the order of the positions; unused ones are H or OH. Bridge positions count the residues as written; N and C are the ends. Side chains are listed from the residue outwards. Ends that are not written are not given here. * marks the point of attachment. C20 diacid = O=C(O)CCCCCCCCCCCCCCCCCCC(=O)*; γGlu = O=C(O)[C@H](CCC(=O)[*:2])N[*:1]

T1: human amylin 3(a) receptor (human calcitonin receptor co-expressed with RAMP-3) (human, UniProt P30988 25-474; O60896 24-148, limits assumed)
T1 sequence (looked up) 1: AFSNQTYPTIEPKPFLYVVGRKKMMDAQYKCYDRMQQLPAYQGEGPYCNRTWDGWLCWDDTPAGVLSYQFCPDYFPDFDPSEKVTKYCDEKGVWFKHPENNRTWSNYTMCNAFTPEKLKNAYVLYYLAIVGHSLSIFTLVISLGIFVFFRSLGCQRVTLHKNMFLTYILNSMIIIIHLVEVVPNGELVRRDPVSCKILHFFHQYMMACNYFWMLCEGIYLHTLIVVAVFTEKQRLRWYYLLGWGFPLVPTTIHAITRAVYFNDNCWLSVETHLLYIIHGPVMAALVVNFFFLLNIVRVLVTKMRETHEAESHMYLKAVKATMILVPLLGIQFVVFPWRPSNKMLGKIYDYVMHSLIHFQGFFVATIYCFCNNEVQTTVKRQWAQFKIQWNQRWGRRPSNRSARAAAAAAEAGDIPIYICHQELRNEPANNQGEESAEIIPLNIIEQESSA
T1 sequence (looked up) 2: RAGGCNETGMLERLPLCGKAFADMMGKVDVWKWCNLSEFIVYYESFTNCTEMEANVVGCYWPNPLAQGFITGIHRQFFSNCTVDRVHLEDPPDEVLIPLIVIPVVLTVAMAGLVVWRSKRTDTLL

T2: human amylin receptor (amylin 3(a) receptor: human calcitonin receptor co-expressed with RAMP-3) (human, UniProt P30988 25-474; O60896 24-148, limits assumed)
T2 construct: whole, on cells; Functional EC50: the whole cells (Assay II a); also called hAmylin-R; hAmylinR
T2 sequence (looked up) 1: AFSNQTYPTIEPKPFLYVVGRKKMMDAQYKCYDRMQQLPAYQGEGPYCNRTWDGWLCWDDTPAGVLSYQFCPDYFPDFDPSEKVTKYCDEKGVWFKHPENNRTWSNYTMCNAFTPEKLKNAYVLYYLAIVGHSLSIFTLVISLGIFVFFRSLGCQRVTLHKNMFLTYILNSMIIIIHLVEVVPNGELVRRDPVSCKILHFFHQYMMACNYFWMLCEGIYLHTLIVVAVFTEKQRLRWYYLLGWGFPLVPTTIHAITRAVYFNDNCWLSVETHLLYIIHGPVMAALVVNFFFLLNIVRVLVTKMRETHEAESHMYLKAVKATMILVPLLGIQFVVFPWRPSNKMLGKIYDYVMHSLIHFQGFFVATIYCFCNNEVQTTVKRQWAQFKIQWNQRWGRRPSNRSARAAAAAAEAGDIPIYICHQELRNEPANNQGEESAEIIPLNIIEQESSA
T2 sequence (looked up) 2: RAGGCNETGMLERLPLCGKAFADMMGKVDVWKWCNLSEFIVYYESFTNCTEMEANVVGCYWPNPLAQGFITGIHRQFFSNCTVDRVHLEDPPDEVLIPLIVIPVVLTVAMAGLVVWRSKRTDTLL

T3: human calcitonin receptor (human, UniProt P30988 25-474)
T3 sequence (looked up): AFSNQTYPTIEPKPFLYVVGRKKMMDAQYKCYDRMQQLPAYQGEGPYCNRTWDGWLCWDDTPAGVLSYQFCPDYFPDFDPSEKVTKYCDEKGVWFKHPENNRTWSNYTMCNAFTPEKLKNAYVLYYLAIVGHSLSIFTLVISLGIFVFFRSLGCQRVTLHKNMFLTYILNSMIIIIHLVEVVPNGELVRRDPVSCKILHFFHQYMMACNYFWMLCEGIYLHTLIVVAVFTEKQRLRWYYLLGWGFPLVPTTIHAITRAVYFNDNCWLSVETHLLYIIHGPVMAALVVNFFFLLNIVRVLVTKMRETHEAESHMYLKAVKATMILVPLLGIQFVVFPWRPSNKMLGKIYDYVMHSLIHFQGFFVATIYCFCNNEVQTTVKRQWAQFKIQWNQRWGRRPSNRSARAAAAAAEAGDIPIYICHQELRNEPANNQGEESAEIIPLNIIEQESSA


Assays:
[1] = molecular target: T1, human amylin 3(a) receptor (human …); experiment: cell-based or functional assay
[2] = molecular target: T1, human amylin 3(a) receptor (human …); experiment: SPA competition vs 125I-rat amylin, membranes of BHK Amylin 3(a)/CRE-luc cells (Assay V)
Description: (§1) The binding assay was performed using scintillation proximity assay (SPA) beads (RPNQ0001) from PerkinElmer and cell membranes from the Amylin 3(a)/CRE-luc cells (as described in Assay (II)) were used. Membranes were prepared in the following way; the cells were rinsed with PBS and incubated with Versene for approximately 5 min before harvesting. The cells were flushed with PBS and the cell-suspension was centrifuged for 5 min at 1000 rpm. Cells were homogenized (ultrathurrax) in a buffer containing 20 mM Na-HEPES and 10 mM EDTA (pH 7.4) and centrifuged at 20.000 rpm for 15 min. The resulting pellet was resuspended, homogenized and centrifuged (20.000 rpm, 15 min) in a buffer containing 20 mM Na-HEPES and 0.1 mM EDTA (pH 7.4, buffer 2). The resulting pellet was resuspended in buffer 2 and protein concentration was measured (BCA protein Assay, Pierce). The homogenate was kept cold during the whole procedure. The membranes were kept at −80° C. until use. The assay was performed in a 384 well Optiplate (PerkinElmer) in a total volume of 40 ul. Membranes were mixed with SPA beads. Final concentration of membranes 35 ng/μL final and SPA beads was 0.05 mg/well. […] Samples were analyzed on TopCounter™ (Packard). The IC₅₀ was calculated using (one site binding competition analysis) GraphPad Prism5 as a measure of receptor affinity.

[3] = molecular target: T2, human amylin receptor (amylin 3(a) …); experiment: SPA competition binding on membranes of Amylin 3(a)/CRE-luc BHK cells, displacement of 125I-rat amylin (Assay V)
Description: as §1

[4] = molecular target: T2, human amylin receptor (amylin 3(a) …); experiment: cell-based or functional assay
[5] = molecular target: T3, human calcitonin receptor; experiment: cell-based or functional assay

Row | Ratio hCT/hAmylin funct. (hCTR EC50 over hAmylin-R EC50) [1] | hAmylin-R funct. EC50 (pM) [1] | IC50 [2] | IC50 [3] | hAmylin-R funct. EC50 [4] | hCTR funct. EC50 [5] | Binder
1 | 23.1 | 433 pM | 1.14 nM |  |  |  | KCNTATCATQRLANFLRHSSPNFGAIPSSTNVGSNTY (alpha-amino group of N-terminal Lys1 acylated with C20 diacid via linker gGlu-2xOEG; disulfide bridge Cys2-Cys7 and C-terminal amide as in human amylin, also called compound 24)
2 |  |  |  | 0.09 nM | 0.069 nM | 0.354 nM | K([γGlu-C20 diacid])CNTATCATQRLAHFLRHSSPNFGAIPSSTNVGPNTY-NH2 (disulfide 2-7; N-terminus assumed; SMILES CC[C@H](C)[C@H](NC(=O)[C@H](C)NC(=O)CNC(=O)[C@H](Cc1ccccc1)NC(=O)[C@H](CC(N)=O)NC(=O)[C@@H]1CCCN1C(=O)[C@H](CO)NC(=O)[C@H](CO)NC(=O)[C@H](Cc1c[nH]cn1)NC(=O)[C@H](CCCNC(=N)N)NC(=O)[C@H](CC(C)C)NC(=O)[C@H](Cc1ccccc1)NC(=O)[C@H](Cc1c[nH]cn1)NC(=O)[C@H](C)NC(=O)[C@H](CC(C)C)NC(=O)[C@H](CCCNC(=N)N)NC(=O)[C@H](CCC(N)=O)NC(=O)[C@@H](NC(=O)[C@H](C)NC(=O)[C@@H]1CSSC[C@H](NC(=O)[C@@H](N)CCCCNC(=O)CC[C@H](NC(=O)CCCCCCCCCCCCCCCCCCC(=O)O)C(=O)O)C(=O)N[C@@H](CC(N)=O)C(=O)N[C@@H]([C@@H](C)O)C(=O)N[C@@H](C)C(=O)N[C@@H]([C@@H](C)O)C(=O)N1)[C@@H](C)O)C(=O)N1CCC[C@H]1C(=O)N[C@@H](CO)C(=O)N[C@@H](CO)C(=O)N[C@H](C(=O)N[C@@H](CC(N)=O)C(=O)N[C@H](C(=O)NCC(=O)N1CCC[C@H]1C(=O)N[C@@H](CC(N)=O)C(=O)N[C@H](C(=O)N[C@@H](Cc1ccc(O)cc1)C(N)=O)[C@@H](C)O)C(C)C)[C@@H](C)O, also called compound 67)
